Experimental findings from patent US20260364189 (published 2026) are described below.

One assay has as its target hTFR1-His (human, UniProt P02786). Description: SPR. For orientation: Surface plasmon resonance follows binding to a sensor surface in real time, without labels.
The target of another assay is T1, fasTFR1 (cell-expressed) (Macaca fascicularis).
T1 chain: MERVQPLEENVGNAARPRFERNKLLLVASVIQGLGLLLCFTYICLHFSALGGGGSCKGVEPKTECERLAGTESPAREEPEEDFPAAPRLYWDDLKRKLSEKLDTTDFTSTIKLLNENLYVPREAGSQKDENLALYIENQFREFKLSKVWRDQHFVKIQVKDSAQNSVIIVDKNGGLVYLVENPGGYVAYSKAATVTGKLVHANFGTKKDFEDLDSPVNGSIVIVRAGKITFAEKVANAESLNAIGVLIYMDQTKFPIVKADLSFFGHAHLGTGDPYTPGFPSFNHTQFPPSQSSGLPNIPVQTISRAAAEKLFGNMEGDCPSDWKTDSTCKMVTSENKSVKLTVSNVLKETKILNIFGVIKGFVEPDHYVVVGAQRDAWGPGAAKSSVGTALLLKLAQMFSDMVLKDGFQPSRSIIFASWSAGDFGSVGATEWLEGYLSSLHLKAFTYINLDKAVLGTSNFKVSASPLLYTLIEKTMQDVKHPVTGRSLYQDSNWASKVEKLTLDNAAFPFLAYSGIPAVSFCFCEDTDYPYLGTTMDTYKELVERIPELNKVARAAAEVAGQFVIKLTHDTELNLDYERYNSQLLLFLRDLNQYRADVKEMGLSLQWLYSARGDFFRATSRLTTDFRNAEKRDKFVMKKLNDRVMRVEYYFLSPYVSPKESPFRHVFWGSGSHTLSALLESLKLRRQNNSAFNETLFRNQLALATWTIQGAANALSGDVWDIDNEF
Description: FACS. A general note: In flow cytometry, cells or beads pass a laser one at a time.

Residue numbers refer to the chain shown, from its start.

Chain of hTFR1-His (P02786 89-760): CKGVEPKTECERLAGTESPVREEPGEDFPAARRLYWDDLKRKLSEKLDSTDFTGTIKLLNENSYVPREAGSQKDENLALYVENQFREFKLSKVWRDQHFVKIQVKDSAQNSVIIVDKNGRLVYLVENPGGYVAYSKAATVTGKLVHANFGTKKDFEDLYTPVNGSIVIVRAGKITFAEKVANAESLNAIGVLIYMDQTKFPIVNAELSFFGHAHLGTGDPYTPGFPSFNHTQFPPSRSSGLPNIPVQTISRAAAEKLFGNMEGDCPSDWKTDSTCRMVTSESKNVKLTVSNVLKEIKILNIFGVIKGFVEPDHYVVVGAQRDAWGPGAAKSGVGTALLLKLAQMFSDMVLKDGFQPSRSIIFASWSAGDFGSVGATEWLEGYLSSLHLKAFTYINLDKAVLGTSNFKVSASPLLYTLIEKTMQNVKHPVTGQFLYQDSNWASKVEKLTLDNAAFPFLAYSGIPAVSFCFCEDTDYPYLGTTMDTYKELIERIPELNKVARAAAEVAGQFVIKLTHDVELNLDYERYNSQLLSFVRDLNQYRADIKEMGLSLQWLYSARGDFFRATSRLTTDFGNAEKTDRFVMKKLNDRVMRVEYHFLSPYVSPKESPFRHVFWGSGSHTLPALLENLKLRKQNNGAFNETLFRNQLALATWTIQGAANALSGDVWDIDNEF

B1: 23B8 (antibody, V domains shown)
VH: QVTLKESGGGLVKPGGSLRLSCAASGFPFSNAWMNWVRQAPGKGLEWVGHIKSKTDGGTTDYAAPVKGRFTISRDDSKNMVFLQMNSLKTEDTAVYYCTTDRAYCGGDCSHYYYHDLDVWGQGTTVTVSS
Regarding B1, the affinity in the assay with hTFR1-His, expressed as Kd, was 8.73 nM. This counts as single-digit nanomolar.

B2: 24G5 (designed binder)
chain: QLQLQESGGGLVQPGGSLRLTCAASGFTFSSFAMSWVRQAPGKGLERVSEISDSGGNTYYADSVKGRFTISRDNSKNTLYLQMNSLRAEDTAVYYCAKDDSSGWAFNIWDQGTVVTVSS
Turning to B2, in the assay with hTFR1-His, binding was characterised by a dissociation constant (Kd) of 2.05 nM.

B3: 24A1 (designed binder)
chain: B2 chain with Q1E, L2V, Q5V, F32Y, D53G, G56S, N57S, Y59N
In the case of B3, the Kd (in general, a measure of binding affinity in units of concentration) with hTFR1-His stood at 2.93 nM.

B4: 24C9 (antibody, V domains shown)
VH: EVQLVQSGGGVVQPGRSLRLSCAASGFTLSSYGMYWVRQAPGKGREWVAFIRFDESKKYYADSVKGRFTISRDNSKNTLYLQMNSLRAEDTAVYYCARDGEGGYCTNGVCHGLDVWGQGTTVTVSS
Consider B4, for which the binding result with fasTFR1 (cell-expressed) is given as “no binding”. This molecule showed a Kd with hTFR1-His of 14.3 nM.
